Among the data in patent publication US12269897 are T1/2 and OD values, retold here.

Where only a bound is given, the exact number is not on record here.

Assay [1] deals with hPCSK9(R215E), mmh-tagged (human, UniProt Q8NBP7 31-692). The assay is described as follows: SPR, mAb captured, 25C. A general note: Surface plasmon resonance follows binding to a sensor surface in real time, without labels.
For assay [2], the target named is T1, Chimeric protein #3 (mPro-mCat-hC-term-mmh) (mouse; human).
T1 chain: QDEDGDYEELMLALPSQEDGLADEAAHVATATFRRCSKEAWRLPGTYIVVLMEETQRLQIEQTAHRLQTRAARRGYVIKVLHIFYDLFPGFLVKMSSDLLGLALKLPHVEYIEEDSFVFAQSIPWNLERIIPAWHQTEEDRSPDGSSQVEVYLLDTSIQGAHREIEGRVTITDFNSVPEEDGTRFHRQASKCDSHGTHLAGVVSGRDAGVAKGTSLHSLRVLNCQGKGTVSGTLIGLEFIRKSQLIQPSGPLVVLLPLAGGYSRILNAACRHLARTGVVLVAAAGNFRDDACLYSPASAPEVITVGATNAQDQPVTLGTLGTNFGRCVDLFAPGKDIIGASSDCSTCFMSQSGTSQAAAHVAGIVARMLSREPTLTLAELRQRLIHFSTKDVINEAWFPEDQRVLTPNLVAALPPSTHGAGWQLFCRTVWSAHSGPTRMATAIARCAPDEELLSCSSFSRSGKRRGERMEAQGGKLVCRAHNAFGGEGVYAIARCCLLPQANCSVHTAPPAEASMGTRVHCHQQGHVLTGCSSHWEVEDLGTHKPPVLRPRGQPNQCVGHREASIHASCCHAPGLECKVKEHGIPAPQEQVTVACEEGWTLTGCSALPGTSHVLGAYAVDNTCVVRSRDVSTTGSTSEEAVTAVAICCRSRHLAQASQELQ
The assay is described as follows: ELISA, mAb coated, 1.2 nM protein.
From the text: After 1 hr binding at RT, the plate was washed and bound test protein detected using HRP-conjugated anti-myc polyclonal antibody (++=OD>1.0; +=OD 0.4-1.0; −=OD<0.4).

B1: H1M300N, fully human version (antibody, V domains shown)
VH: EMQLVESGGGLVQPGGSLRLSCAASGFTFSSHWMKWVRQAPGKGLEWVANINQDGSEKYYVDSVKGRFTISRDNAKNSLFLQMNSLRAEDTAVYYCARDIVLMVYDMDYYYYGMDVWGQGTTVTVSS
VL: not shown
notes: Fully human mAb made in CHO cells
The molecule B1 came in with a T1/2 in assay [1] of 77 min.

B2: H1M300 (antibody, V domains shown)
VH: B1 VH
VL: not shown
notes: Hybridoma-derived chimeric antibody (human variable, mouse constant)
For B2, in assay [2], the OD is less than 0.4 od.
